The numbers were not newly measured in paper PMC5760685, which cites them from elsewhere.

This data set concerns the target CRHR1 (UniProt P34998).
Chain of UniProt P34998 (P34998 24-415): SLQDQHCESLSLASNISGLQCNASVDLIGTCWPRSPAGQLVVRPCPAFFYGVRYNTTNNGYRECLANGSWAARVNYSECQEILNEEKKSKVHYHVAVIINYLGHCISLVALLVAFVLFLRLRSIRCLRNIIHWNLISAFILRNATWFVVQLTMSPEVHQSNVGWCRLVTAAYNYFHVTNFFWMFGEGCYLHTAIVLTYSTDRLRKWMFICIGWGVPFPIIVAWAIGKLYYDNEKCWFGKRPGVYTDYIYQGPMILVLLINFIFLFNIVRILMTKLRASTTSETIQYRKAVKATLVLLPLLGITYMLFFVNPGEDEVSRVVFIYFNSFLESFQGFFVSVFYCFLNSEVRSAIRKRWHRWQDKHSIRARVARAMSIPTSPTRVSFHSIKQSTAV

For CRH (from UniProt P06850), the Kd was 3 nM.
